For two molecules, Kd, koff and kon results are on record in article PMC12104855.

For this assay, the target named is T1, biotin-conjugated KIFC1 (residues 1-50).
T1 sequence (peptide, biotin on the N-terminus): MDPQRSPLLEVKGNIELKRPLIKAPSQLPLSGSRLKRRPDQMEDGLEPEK
Kind of assay: BLI. (In general: BLI is a label-free optical method that tracks binding on a fibre tip over time.)

As usually defined, the Kd is the constant that tells how readily two partners part at equilibrium. Low readings indicate higher affinity, high ones lower affinity. Broadly, the koff is the rate constant with which the complex falls apart. High values mean a short-lived complex, low ones a long-lived complex. What is called kon is a measure of how fast the partners come together. The low end stands for slower complex formation, the high end for faster complex formation.

B1: 6CD1-IMGT IgG (antibody, V domains shown)
VH: EVQLQQSGAELVKPGASVKLSCTASGFNIKDTYIHWVKQRPEQGLEWIGRIDPANGNTKYDPKFQGKATITADTSSNTAYLQLSSLTSEDTAVYYCARGYGSRSAMDYWGQGTSVTVS
VL: DIVLTQSPASLAVSLGQRATISCRASQSLFNSRTRKNYMLWYQQKPGQPPKLLIYLASNLESGVPARFSGSGSGTDFTLNIHPVEEEDAATYYCQHSRELPWTFGGGTKLEIK
In turn, B1 returned a dissociation constant (Kd) of 9.31 nM, a koff of 0.000682 s⁻¹ and an on-rate constant (kon) of 73100 M⁻¹ s⁻¹.

B2: 6C407 IgG (antibody, V domains shown)
VH: B1 VH
VL: DIVLTQSPASLAVSLGQRATISCRASKSVSTSGYSYMLWYQQKPGQPPKLLIYLASNLESGVPARFSGSGSGTDFTLNIHPVEEEDAATYYCQHSRELPWTFGGGTKLEIK
For the molecule B2, the Kd came out at 10.6 nM.
